In patent US20080221021A1, “Novel Corticotropin-Releasing Factor Receptor 1 (Crfr1) Agonist” (Max-Planck-Gesellschaft Zur Forderung Der, priority 2004, published 2008):

Legend:
[1] = molecular target: mouse CRFR2β (mouse) (UniProt Q60748); assay: competition binding
[2] = molecular target: rat CRFR1α (rat) (UniProt P35353); assay: competition binding
[3] = molecular target: rat CRFR1α (rat) (UniProt P35353); assay: competition binding against [125I-Tyr0]h/rCRF, SPA; reference compound 6
[4] = molecular target: mouse CRFR2β (mouse) (UniProt Q60748); assay: competition
[5] = molecular target: rat CRFR1α (rat) (UniProt P35353); assay: competition binding; selectivity for CRFR1 over CRFR2, reference h/rCRF; data not shown
[6] = molecular target: rat CRFR1α (rat) (UniProt P35353); assay: competition binding (SPA); selectivity for rCRFR1 over mCRFR2β, reference h/rCRF

Chain of mouse CRFR2β (mouse) (Q60748 20-411): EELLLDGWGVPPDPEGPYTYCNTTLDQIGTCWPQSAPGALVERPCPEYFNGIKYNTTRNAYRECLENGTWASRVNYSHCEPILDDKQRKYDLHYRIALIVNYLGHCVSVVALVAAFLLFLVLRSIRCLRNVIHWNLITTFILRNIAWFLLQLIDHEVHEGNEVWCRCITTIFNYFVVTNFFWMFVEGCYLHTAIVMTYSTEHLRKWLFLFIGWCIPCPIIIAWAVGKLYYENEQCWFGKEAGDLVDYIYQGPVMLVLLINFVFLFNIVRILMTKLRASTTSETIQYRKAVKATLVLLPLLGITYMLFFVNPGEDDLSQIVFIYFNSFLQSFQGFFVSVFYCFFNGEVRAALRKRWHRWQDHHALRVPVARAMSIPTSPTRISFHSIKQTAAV
Chain of rat CRFR1α (rat) (P35353 24-415): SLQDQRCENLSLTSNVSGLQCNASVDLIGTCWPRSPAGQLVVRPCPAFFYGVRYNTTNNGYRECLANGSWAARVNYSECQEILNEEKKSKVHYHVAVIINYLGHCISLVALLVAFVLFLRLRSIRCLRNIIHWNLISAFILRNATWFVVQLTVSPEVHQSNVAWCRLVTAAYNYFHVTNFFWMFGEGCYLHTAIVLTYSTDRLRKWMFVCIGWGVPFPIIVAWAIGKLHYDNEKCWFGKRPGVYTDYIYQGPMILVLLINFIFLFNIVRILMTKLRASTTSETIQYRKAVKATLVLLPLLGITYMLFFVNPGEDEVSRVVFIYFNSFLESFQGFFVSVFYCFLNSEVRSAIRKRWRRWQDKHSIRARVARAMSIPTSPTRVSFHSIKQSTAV
Chain of human/rat corticotropin-releasing factor (P06850 154-194): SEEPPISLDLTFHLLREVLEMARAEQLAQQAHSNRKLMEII

| Substance | IC50 [2] | IC50 [1] | other results |
| --- | --- | --- | --- |
| [Svg^1-12]x[h/rCRF^14-30]x[Svg^30-40] (from UniProt P01144 1-12; P06850 167-183; P01144 30-40) | 9.5 nM | 700 nM |  |
| [Ala^40] [Svg^1-12]x[h/rCRF^14-30]x[Svg^30-40] (peptide) |  |  | fold increase in affinity against compound 6 [3]: > 5 fold |
| [h/rCRF^1-30]x[Svg^30-40] (from UniProt P06850 154-183; P01144 30-40) | 2 nM | 330 nM |  |
| [h/rCRF^1-13]x[Svg^13-29]x[h/rCRF^31-41] (from UniProt P06850 154-166; P01144 13-29; P06850 184-194) | 0.47 nM | 0.69 nM |  |
| [Ala^41]h/rCRF (from UniProt P06850 154-194) (peptide) |  |  | fold increase in CRFR1 selectivity against h/rCRF [5]: 3 fold |
| ovine corticotropin-releasing factor (peptide) |  |  | fold higher selectivity for CRFR1 than h/rCRF [6]: 3 fold |

Continued, in another order:

| IC50 [2] | Substance | IC50 [1] | other results |
| --- | --- | --- | --- |
| 1.6 nM | human/rat corticotropin-releasing factor (from UniProt P06850 154-194) |  | IC50 [4]: 42 nM |
| 1.8 nM | [Svg^1-29]x[h/rCRF^31-41] (from UniProt P01144 1-29; P06850 184-194) | 0.98 nM |  |
